Assay [1] has as its target α-subunit of the F1 part of the Na+-F1FO-ATP synthase of Acetobacterium woodii, N-terminal StrepI tag (Acetobacterium woodii (strain ATCC …, UniProt P50000)). Put plainly: LILBID-MS; tested with 2 mM ATP/2 mM MgCl2; δ binds only once the α3β3 hexameric head (α3β3γ/α3β3γε) is preformed.
In assay [2] the target is β-subunit of the F1 part of the Na+-F1FO-ATP synthase of Acetobacterium woodii, N-terminal His6 tag (Acetobacterium woodii (strain ATCC …, UniProt P50002)). The description is as above.
β-subunit of the F1 part of the Na+-F1FO-ATP synthase of Acetobacterium woodii, N-terminal His6 tag (Acetobacterium woodii, sequence (P50002 whole entry): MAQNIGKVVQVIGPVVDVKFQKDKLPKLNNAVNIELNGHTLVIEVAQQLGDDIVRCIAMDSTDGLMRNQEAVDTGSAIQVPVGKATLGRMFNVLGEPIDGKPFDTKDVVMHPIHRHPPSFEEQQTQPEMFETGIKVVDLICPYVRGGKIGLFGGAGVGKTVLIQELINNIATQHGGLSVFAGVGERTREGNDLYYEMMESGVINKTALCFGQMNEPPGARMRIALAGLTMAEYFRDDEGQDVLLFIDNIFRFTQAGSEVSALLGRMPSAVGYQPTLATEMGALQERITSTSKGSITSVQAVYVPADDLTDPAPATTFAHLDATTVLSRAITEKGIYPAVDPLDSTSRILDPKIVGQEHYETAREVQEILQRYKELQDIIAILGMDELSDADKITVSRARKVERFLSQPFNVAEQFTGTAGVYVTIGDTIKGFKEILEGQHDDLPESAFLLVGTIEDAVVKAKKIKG

α-subunit of the F1 part of the Na+-F1FO-ATP synthase of Acetobacterium woodii, N-terminal StrepI tag (Acetobacterium woodii, sequence (P50000 whole entry): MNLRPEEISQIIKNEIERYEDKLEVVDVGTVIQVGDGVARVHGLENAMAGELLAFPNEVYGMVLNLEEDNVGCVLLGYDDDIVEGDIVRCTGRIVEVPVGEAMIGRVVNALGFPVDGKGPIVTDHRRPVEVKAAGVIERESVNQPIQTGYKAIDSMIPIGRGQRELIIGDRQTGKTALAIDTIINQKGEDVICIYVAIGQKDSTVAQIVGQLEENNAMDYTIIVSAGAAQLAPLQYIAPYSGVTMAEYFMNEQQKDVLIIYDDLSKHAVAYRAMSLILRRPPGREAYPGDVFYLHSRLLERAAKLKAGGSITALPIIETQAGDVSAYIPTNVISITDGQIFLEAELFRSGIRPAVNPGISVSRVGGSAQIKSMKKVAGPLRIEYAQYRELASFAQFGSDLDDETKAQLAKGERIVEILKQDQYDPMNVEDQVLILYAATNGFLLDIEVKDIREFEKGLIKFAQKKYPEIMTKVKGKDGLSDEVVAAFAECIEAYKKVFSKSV

B1: δ-subunit of the F1 part of the Na+-F1FO-ATP synthase of Acetobacterium woodii, C-terminal His6 tag (protein)
chain: MSLVASKYARALFDVAVDKDQLDEIFSDFKTATDLFSSEKKFMDLMLTPSLNTGEKKGILMRSLESLSNQYVKNYLMILMDKNRFEDIFDIYEAFRKLCNEHKNLVEARVLTVIPLDETLRIALEENLAKRFNKKVILENEIDKSILGGAVVYVGDQIIDGSIKNQLSQMKKQVNNLRLH
Turning to B1, the binding result in assay [1] and in assay [2] was “no binding” throughout.

These data come from publication PMC8904574 (2022).
